The source of these data is publication PMC4999191.

The test deals with calmodulin (CaM agarose beads) (UniProt P62157). Briefly: pull-down with CaM-agarose beads, immunoblot (band quantification printed under the lanes). As to conditions: parent: 100. For orientation: Immunoblotting shows a protein as a band on a membrane.

As for “PC1-p30, soluble polycystin-1 cytoplasmic tail L4137P”, the percent of parent stood at 29.

Turning to “PC1-p30, soluble polycystin-1 cytoplasmic tail R4150C”, the percent of parent came out at 116.
